For the experiment, the target named is T1, SARS-CoV-2 S protein extracellular domain (S-ECD, 1–1208 aa) (SARS-CoV-2, Wuhan-Hu-1 (GenBank …, UniProt P0DTC2, proline substitution at residue 986 | proline substitution at residue 987 | …)).
T1 construct: also called S trimer; trimeric S protein
Nature of the experiment: cryo-EM structure. The conditions noted are these: both partners purified.

B1: P5A-2G9 (full-length IgG) (antibody, V domains shown)
VH: QVQLVESGGGVVQPGRSLRLSCAASGFTFSSYGMHWVRQAPGKGLEWVAVIWYDGSNKYYADSVKGRFTISRDNSKNTLYLQMNSLRAEDTAVYYCARWFHTGGYFDYWGQGTLVTVSS
VL: QPVLTQPPSSSASPGESARLTCTLPSDINVSSYNIYWYQQKPGSPPRYLLYYYSDSDKGQGSGVPSRFSGSKDASANTGILLISGLQSEDEADYYCMIWPSNALYVFGTGTKVTVL
As for B1, the binding result is given as “binds”.

B2: P2B-1A10 (full-length IgG) (antibody, V domains shown)
VH: EVQLVESGGGLIQPGGSLRLSCAASGFTVSSNYMSWVRQAPGKGLEWVSVIYSGGSTYYADSVKGRFTISRDNSKNTLYLQMNSLRAEDTAVYYCAREGPKSITGTAFDIWGQGTIVTVSS
VL: DIQMTQSPSSLSASVGDRVTITCQASQDISNYFNWYQQKPGKAPKLLIYDASNLETGVPSRFSGSGSGTDFTFTISSLQPEDIATYYCQQYDNLPMYTFGQGTKLEIK
Consider B2, for which the binding result was “binds”.

The record behind these values is paper PMC7966918 (Cell Research, 2021).
